Test results reported in paper PMC2568859, “Hybrids of the bHLH and bZIP Protein Motifs Display Different DNA-Binding Activities In Vivo vs. In Vitro”.

B1: nonspecific 24-mer duplex (dsDNA)
DNA 1: TGCAGGAATTCCAAGGTGAAGGTT
DNA 2: AACCTTCACCTTGGAATTCCTGCA
B2: E-box 24-mer duplex (dsDNA)
DNA 1: TGCAGGAATCACGTGATGAAGGTT
DNA 2: AACCTTCATCACGTGATTCCTGCA

What was measured:
ArntbHLH-C/EBP [1] = biological target: T1, ArntbHLH-C/EBP (Homo sapiens (Arnt isoform variant 3) / …, UniProt P27540-2 65-130+=RIR+P05554:317-345, internal_change); test: fluorescence anisotropy; up to 1 uM monomeric protein; data not shown; Buffer B: 100 mM Tris pH 7.4, 150 mM NaCl, 1 mM EDTA, 200 mM guanidine-HCl, 20% glycerol, 0.1 mg/mL acetylated BSA, 100 uM bp calf thymus DNA; 1 nM duplex; overnight 4 C then 22 C. Buffer C: 100 mM Tris pH 7.4, 150 mM NaCl, 1 mM EDTA, 1.0 ug/mL poly dI-dC. Buffer A: phosphate pH 7.4, 150 mM NaCl, 2.7 mM KCl, 1 mM EDTA, 800 mM urea, 20% glycerol, …; conditions: protein: recombinant; (pET-28A(+), TALON purified); chain copies: 2; label: 5' 6-FAM on one strand; 24-mer duplex
T1 sequence (P27540 other isoform, or with tags, fused parts or gaps): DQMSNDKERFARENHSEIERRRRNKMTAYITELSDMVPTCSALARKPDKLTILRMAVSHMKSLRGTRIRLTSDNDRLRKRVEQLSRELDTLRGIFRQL

ArntbHLH [2] = biological target: T2, ArntbHLH (Homo sapiens (isoform variant 3), UniProt P27540-2 65-130); test: as above; conditions: protein: recombinant; chain copies: 2; label: 5' 6-FAM on one strand; 24-mer duplex
T2 sequence (P27540 other isoform, or with tags, fused parts or gaps): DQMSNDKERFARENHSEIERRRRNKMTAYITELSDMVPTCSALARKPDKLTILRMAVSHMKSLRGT

ArntbHLH-C/EBP [3] = biological target: T1, ArntbHLH-C/EBP; test: fluorescence anisotropy; Buffer C (no additives, 1.0 ug/mL poly dI-dC); single isotherm, plateau not reached; Hill ~2; Buffer B: 100 mM Tris pH 7.4, 150 mM NaCl, 1 mM EDTA, 200 mM guanidine-HCl, 20% glycerol, 0.1 mg/mL acetylated BSA, 100 uM bp calf thymus DNA; 1 nM duplex; overnight 4 C then 22 C. Buffer C: 100 mM Tris pH 7.4, 150 mM NaCl, 1 mM EDTA, 1.0 ug/mL poly dI-dC. Buffer A: phosphate pH 7.4, 150 mM NaCl, …; conditions: protein: recombinant; (pET-28A(+), TALON purified); chain copies: 2; label: 5' 6-FAM on one strand; 24-mer duplex
ArntbHLH [4] = biological target: T2, ArntbHLH; test: as above; conditions: protein: recombinant; chain copies: 2; label: 5' 6-FAM on one strand; 24-mer duplex

Binder	binding result (ArntbHLH-C/EBP [1])	binding result (ArntbHLH [2])	Kd (ArntbHLH-C/EBP [3]) [nM]	Kd (ArntbHLH [4]) [nM]
B1	no binding	no binding		
B2			~350	~350
